Experimental findings from US20240132578A1 are described below.

What all share (test): cell-based or functional assay
Assay [1] concerns the target HIV-1 92BR020 envelope (Env) on pseudovirus (HIV-1).
The target of assay [2] is HIV-1 92RW021 envelope glycoprotein (Env) on pseudovirus (HIV-1 (clade A)).
Assay [3] has as its target HIV-1 92TH021 Env (pseudovirus) (HIV-1).
The target in assay [4] is HIV-1 94UG103 envelope (Env) on pseudovirus (HIV-1).
Assay [5] has as its target HIV-1 Env of isolate 93TH305, clade B (HIV-1).
For assay [6], the target named is HIV-1 Env of isolate APV_17, clade B (HIV-1).
The target of assay [7] is HIV-1 Env of isolate MGRM-D-005 (clade D pseudovirus) (HIV-1).
Assay [8] deals with HIV-1 Env of isolate MGRM-D-012 (clade D pseudovirus) (HIV-1).
In assay [9] the target is HIV-1 Env of isolate MGRM-D-021 (clade D pseudovirus) (HIV-1).
For assay [10], the target named is HIV-1 Env of isolate MGRM-D-022 (clade D pseudovirus) (HIV-1).
The target of assay [11] is HIV-1 Env of pseudovirus MGRM-F1-012 (clade F) (HIV-1).
Assay [12] deals with HIV-1 Env of pseudovirus MGRM-G-016 (HIV-1).
Assay [13] deals with HIV-1 Env of pseudovirus MGRM-G-027 (HIV-1).
For assay [14], the target named is HIV-1 IAVI-C3 envelope (Env) on pseudovirus (HIV-1).
The target of assay [15] is HIV-1 MGRM-AG-003 Env (pseudovirus) (HIV-1).
Assay [16] has as its target HIV-1 MGRM-AG-009 Env (pseudovirus) (HIV-1).
For assay [17], the target named is HIV-1 MGRM-G-009 Env (pseudovirus) (HIV-1).
The target in assay [18] is HIV-1 envelope glycoprotein (Env) of isolate MGRM-C-004 (HIV-1).
The target in assay [19] is HIV-1 envelope glycoprotein (Env) of isolate MGRM-C-009 (HIV-1).
Assay [20] has as its target HIV-1 Env of pseudovirus MGRM-D-011 (HIV-1).
In assay [21] the target is HIV-1 Env of pseudovirus MGRM-D-022 (HIV-1).
In assay [22] the target is HIV-1 Env of pseudovirus MGRM-F1-006 (HIV-1).
The target of assay [23] is HIV-1 Env of pseudovirus MGRM-F1-013 (HIV-1).
Assay [24] addresses HIV-1 Env of pseudovirus MGRM-F1-023 (HIV-1).
In assay [25] the target is HIV-1 Env of isolate MGRM-C-017 (subtype C), on pseudovirus (HIV-1).
For assay [26], the target named is HIV-1 Env of isolate MGRM-C-026 (subtype C), on pseudovirus (HIV-1).
In assay [27] the target is HIV-1 Env of isolate MGRM-G-014 (subtype G) (HIV-1).
The target of assay [28] is HIV-1 Env of isolate MGRM-G-027 (subtype G) (HIV-1).
The target in assay [29] is HIV-1 Env of pseudovirus isolate JR-FL (clade B) (HIV-1).
In assay [30] the target is HIV-1 Env of pseudovirus isolate MGRM-Chronic-B-001 (clade B) (HIV-1).
The target in assay [31] is HIV-1 Env of isolate MGRM-A-010 (subtype A) (HIV-1).
Assay [32] concerns the target HIV-1 Env of isolate MGRM-AG-008 (subtype AG) (HIV-1).
In assay [33] the target is HIV-1 Env of isolate MGRM-D-002 (pseudovirus) (HIV-1).
For assay [34], the target named is HIV-1 Env of isolate MGRM-D-026 (HIV-1).
In assay [35] the target is HIV-1 Env of isolate MGRM-F1-010 (HIV-1).
Assay [36] concerns the target HIV-1 Env of isolate MGRM-F1-020 (HIV-1).
Assay [37] concerns the target HIV-1 Env of pseudovirus isolate MGRM-C-017 (clade C) (HIV-1).
The target of assay [38] is HIV-1 Env of pseudovirus isolate MGRM-C-025 (clade C) (HIV-1).
The target of assay [39] is HIV-1 JR-CSF Env D417A (HIV-1 (isolate JR-CSF)) (UniProt P20871).
For assay [40], the target named is HIV-1 JR-CSF Env N392Q (HIV-1 (isolate JR-CSF)) (UniProt P20871).
Assay [41] has as its target HIV-1 MGRM-AG-005 envelope protein (Env) on pseudovirus (HIV-1).

As for 2G12 (antibody), the neutralization IC50 in assay [1] is 2.26 µg/mL; in assay [4], greater than 50 µg/mL; in assay [14] it was greater than 50 µg/mL. Further, the IC50 (µg/ml), pseudovirus neutralization in assay [2] is greater than 50 µg/mL; in assay [3], greater than 50 µg/mL; in assay [5], 0.55 µg/mL; in assay [6], greater than 50 µg/mL; in assay [12], greater than 50 µg/mL; in [13] it was greater than 50 µg/mL. In addition, the IC50 (µg/ml), pseudovirus neutralization in assay [15], in assay [16], in assay [17], in assay [18] and in [19] was greater than 50 µg/mL each time. The IC50, pseudovirus neutralization in [7] is 25.7 µg/mL; in [8] it was greater than 50 µg/mL; in assay [9], 23 µg/mL; in [10], greater than 50 µg/mL. The substance also had an IC50 in [11] of 1.81 µg/mL.
In the case of b12 (antibody), the results for the neutralization IC50 in assay [1], in assay [4] and in assay [14] were 27.5 µg/mL, 3.54 µg/mL and 5 µg/mL, respectively. Further, the IC50 (µg/ml), pseudovirus neutralization in assay [2] is greater than 50 µg/mL; in [5] it was 4.17 µg/mL; in assay [6] it was greater than 50 µg/mL; in [12], greater than 50 µg/mL; in [13], greater than 50 µg/mL; in [15], greater than 50 µg/mL. Also, the IC50 (µg/ml), pseudovirus neutralization was greater than 50 µg/mL in [16], greater than 50 µg/mL in [17], 5.46 µg/mL in [18] and greater than 50 µg/mL in assay [19]. For the same substance, the IC50, pseudovirus neutralization was greater than 50 µg/mL in [7], 0.13 µg/mL in [8], 5.23 µg/mL in [9] and 17.6 µg/mL in assay [10]. The IC50 in assay [11] was greater than 50 µg/mL.
As to PGT-142 (4995_E20) (antibody), the IC50, pseudovirus neutralization in assay [20] was greater than 50 µg/mL; in [21], greater than 50 µg/mL; in assay [22], 12.9 µg/mL; in assay [23], 0.023 µg/mL; in [24] it was 0.602 µg/mL.
Regarding VRC01 (antibody), the IC50, single-round pseudovirus neutralization in assay [25] came out at 0.366 µg/mL; in assay [26], 0.707 µg/mL. Further, the values for the IC50 (µg/mL), pseudovirus neutralization in [27] and in assay [28] were 0.056 µg/mL and 0.36 µg/mL, respectively. In addition, the IC50, pseudovirus neutralization in assay [20] is 0.075 µg/mL; in assay [21], greater than 50 µg/mL; in assay [22], 2.86 µg/mL; in assay [23] it was 0.17 µg/mL; in assay [24], 0.392 µg/mL; in assay [29], 0.034 µg/mL. In assay [30], this substance showed an IC50, pseudovirus neutralization of 0.066 µg/mL.
For the substance PGT-143 (4980_N08) (antibody), the IC50, pseudovirus neutralization is greater than 50 µg/mL in assay [20]; greater than 50 µg/mL in assay [21]; 12.3 µg/mL in assay [22]; 0.013 µg/mL in assay [23]; 0.972 µg/mL in assay [24].
As for PGT-145 (4995_P16) (antibody), the IC50, pseudovirus neutralization in [20] was determined as 14.7 µg/mL; in [21], 34.3 µg/mL; in [22] it was 13.6 µg/mL; in [23] it was 0.402 µg/mL; in assay [24] it was 5.88 µg/mL.
Take 2F5 (antibody): the neutralization IC50 in assay [1] is greater than 50 µg/mL; in assay [4], 3.79 µg/mL; in [14], greater than 50 µg/mL. Moreover, the IC50 (µg/ml), pseudovirus neutralization was determined as 4.16 µg/mL in assay [2]; 7.61 µg/mL in assay [5]; 4.61 µg/mL in assay [6]; 16.8 µg/mL in [12]; 0.28 µg/mL in assay [13]; 0.14 µg/mL in [15]. Besides, the IC50 (µg/ml), pseudovirus neutralization in assay [16] was 24.8 µg/mL; in assay [17], 7.21 µg/mL; in assay [18], greater than 50 µg/mL; in [19] it was greater than 50 µg/mL. In addition, the IC50, pseudovirus neutralization was greater than 50 µg/mL in assay [7], 1.7 µg/mL in [8], greater than 50 µg/mL in assay [9] and 8.45 µg/mL in assay [10]. The substance also had an IC50 in assay [11] greater than 50 µg/mL.
Take 5343_B08 (PGT-135) (antibody): the IC50, pseudovirus neutralization in assay [31], in assay [32], in assay [37] and in assay [38] was greater than 50 µg/mL each time. Also, the IC50 (µg/mL), pseudovirus neutralization was greater than 50 µg/mL in assay [33], greater than 50 µg/mL in assay [34], greater than 50 µg/mL in [35] and 0.168 µg/mL in [36]. Further, the Fold IC50 increase relative to wild-type (pseudovirus neutralization) is 5 fold in [39] and greater than 250 fold in assay [40]. This substance also registered an IC50 (ug/mL), pseudovirus neutralization in [41] greater than 10 µg/mL.
Turning to 5329_C19 (PGT-136) (antibody), the IC50, pseudovirus neutralization in [31], in [32], in assay [37] and in assay [38] was greater than 50 µg/mL throughout. Moreover, the IC50 (µg/mL), pseudovirus neutralization in [33] is greater than 50 µg/mL; in assay [34], greater than 50 µg/mL; in assay [35], greater than 50 µg/mL; in assay [36] it was 9.31 µg/mL. For the same substance, in assay [41], the IC50 (ug/mL), pseudovirus neutralization is greater than 10 µg/mL.
On to 5147_N06 (PGT-130) (antibody), for which the IC50, pseudovirus neutralization is 0.005 µg/mL in assay [31], greater than 50 µg/mL in [32], greater than 50 µg/mL in assay [37] and greater than 50 µg/mL in [38]. In addition, the IC50 (µg/mL), pseudovirus neutralization was 0.869 µg/mL in [33], greater than 50 µg/mL in assay [34], greater than 50 µg/mL in [35] and 9.73 µg/mL in assay [36]. For the same substance, the figures for the Fold IC50 increase relative to wild-type (pseudovirus neutralization) in assay [39] and in [40] were 1 fold and 1.2 fold, respectively. The same substance gave an IC50 (ug/mL), pseudovirus neutralization in [41] of 0.947 µg/mL.
Regarding PGT-141 (4964_G22; 4993_K13) (antibody), the IC50, pseudovirus neutralization in [20] is greater than 50 µg/mL; in assay [21] it was greater than 50 µg/mL; in assay [22], 8.99 µg/mL; in assay [23] it was 0.043 µg/mL; in [24] it was 0.307 µg/mL.
As for PGT-144 (4970_K22) (antibody), the IC50, pseudovirus neutralization in [20] was greater than 50 µg/mL; in assay [21], greater than 50 µg/mL; in assay [22], 20.6 µg/mL; in [23], 0.509 µg/mL; in assay [24] it was 1.16 µg/mL.

Broadly, the IC50 is the concentration at which inhibition is half-maximal.
